Measured values as given in patent US20180208648A1 (SCHOLAR ROCK, published 2018).

T1: human proGDF11 (human, UniProt O95390 25-407, biotinylated (NHS-PEG4-Biotin), site not stated)
T1 construct: Dimeric complex; also called hu proGDF11; GDF11 prodomain complex
T1 sequence: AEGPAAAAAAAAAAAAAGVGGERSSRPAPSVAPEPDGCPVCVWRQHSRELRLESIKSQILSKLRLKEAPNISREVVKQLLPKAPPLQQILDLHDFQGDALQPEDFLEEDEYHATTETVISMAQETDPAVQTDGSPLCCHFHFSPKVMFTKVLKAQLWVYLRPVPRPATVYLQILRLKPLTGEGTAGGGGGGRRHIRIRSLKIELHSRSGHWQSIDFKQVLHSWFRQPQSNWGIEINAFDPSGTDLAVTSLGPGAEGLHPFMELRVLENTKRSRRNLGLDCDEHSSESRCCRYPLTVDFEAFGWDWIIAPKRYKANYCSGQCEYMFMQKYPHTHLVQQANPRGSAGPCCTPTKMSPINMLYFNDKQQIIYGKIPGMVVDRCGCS

T2: murine proGDF11 (mouse, UniProt Q9Z1W4 25-405, biotinylated, site not stated)
T2 sequence: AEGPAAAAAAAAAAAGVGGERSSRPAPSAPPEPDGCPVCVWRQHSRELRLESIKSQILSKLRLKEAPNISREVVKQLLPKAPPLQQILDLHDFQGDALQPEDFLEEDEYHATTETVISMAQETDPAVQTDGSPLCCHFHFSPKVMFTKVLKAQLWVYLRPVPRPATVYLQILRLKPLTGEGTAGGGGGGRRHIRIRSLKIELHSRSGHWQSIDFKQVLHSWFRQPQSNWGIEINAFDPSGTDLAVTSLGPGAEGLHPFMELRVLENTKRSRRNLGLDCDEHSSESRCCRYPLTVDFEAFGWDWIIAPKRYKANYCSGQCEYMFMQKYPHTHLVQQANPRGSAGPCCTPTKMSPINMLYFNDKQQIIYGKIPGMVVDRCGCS

T3: human proGDF8 (human, UniProt O14793 24-375, biotinylated, site not stated)
T3 construct: also called hu proGDF8; human proMyostatin
T3 sequence: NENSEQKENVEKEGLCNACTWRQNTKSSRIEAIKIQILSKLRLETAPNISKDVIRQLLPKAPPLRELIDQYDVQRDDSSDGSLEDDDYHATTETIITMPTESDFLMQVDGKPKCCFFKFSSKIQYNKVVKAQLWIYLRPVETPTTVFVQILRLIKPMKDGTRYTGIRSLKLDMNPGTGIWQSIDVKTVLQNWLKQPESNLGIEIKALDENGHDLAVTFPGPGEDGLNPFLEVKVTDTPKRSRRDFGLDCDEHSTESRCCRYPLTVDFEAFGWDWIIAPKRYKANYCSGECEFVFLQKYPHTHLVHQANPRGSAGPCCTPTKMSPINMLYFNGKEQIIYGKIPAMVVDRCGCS

T4: human prodomain GDF11 ARM8 (human, biotinylated, site not stated)
T4 construct: GDF11 prodomain having the GDF8 arm domain; also called human GDF11 ARM8 prodomain
T4 chain: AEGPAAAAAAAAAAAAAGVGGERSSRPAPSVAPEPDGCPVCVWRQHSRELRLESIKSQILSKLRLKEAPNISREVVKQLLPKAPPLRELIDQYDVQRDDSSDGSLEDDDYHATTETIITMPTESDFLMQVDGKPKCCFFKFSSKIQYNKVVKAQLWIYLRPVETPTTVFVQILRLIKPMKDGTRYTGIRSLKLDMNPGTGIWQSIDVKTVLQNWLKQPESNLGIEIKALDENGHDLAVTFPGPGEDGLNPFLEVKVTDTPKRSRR

T5: human mature GDF11 (human, UniProt O95390 299-407, biotinylated, site not stated)
T5 construct: Growth factor domain; also called GDF11 mature growth factor
T5 sequence: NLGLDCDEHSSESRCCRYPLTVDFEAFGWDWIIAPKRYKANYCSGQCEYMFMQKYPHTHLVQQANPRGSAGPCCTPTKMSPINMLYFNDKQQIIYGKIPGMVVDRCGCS

T6: human latent GDF11 (human, UniProt O95390 25-407, biotinylated, site not stated)
T6 construct: also called hu latent GDF11
T6 sequence: T1 sequence

T7: human proActivin A (human, UniProt P08476 21-426, biotinylated (immobilized on streptavidin biosensors), site not stated)
T7 construct: also called human Activin A; Inhibin-beta A pro-protein
T7 sequence: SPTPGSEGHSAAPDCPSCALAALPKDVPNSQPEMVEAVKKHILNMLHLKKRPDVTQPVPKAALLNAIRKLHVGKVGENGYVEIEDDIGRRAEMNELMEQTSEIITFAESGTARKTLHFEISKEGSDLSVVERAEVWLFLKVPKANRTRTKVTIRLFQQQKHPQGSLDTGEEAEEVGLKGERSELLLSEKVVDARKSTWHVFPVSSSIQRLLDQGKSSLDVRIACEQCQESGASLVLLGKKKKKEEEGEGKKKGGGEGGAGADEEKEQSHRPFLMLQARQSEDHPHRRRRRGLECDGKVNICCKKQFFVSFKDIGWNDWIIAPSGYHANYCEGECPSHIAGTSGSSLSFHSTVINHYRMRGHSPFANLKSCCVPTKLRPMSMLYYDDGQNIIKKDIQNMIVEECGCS

T8: human proGDF11 ARM8 (human, biotinylated, site not stated)
T8 construct: GDF11 having the GDF8 arm domain
T8 chain: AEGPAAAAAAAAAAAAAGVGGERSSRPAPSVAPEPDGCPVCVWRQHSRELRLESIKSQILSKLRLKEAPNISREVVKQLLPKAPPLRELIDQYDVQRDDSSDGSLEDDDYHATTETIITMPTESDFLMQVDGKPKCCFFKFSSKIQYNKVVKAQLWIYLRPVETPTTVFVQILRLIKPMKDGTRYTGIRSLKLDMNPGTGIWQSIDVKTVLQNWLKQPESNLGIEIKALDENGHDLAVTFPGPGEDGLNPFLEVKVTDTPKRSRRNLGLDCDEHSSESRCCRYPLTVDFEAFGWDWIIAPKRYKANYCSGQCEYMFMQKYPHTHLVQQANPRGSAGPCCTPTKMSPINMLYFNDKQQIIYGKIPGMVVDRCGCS

B1: GDF11 Inh-6 (antibody, V domains shown)
VH: QVQLQESGPGLVKPSETLSLTCTVSGGSISSSSYYWGWVRQPPGKGLEWIGEIYHSGSTNYNPSLKSRVTISVDTSKNQFSLKLSSVTAADTAVYYCARVGTSWEYYFDYWGQGTLVTVSS
VL: DIQMTQSPASLSASVGDRVTITCRTSQHIINYLNWYQQRPGKAPNLLIYKASTLQSGVPSRFSGSGSGTHFTLTISSLQPEDFATYYCQQYQSYPITFGQGTRLEIKR
notes: also called Clone GDF11 Inh-6
B2: GDF11 Inh-1 (antibody, V domains shown)
VH: EVQLLESRGGLVQPGRSLRLSCAASGFTFDDYAMHWVRQAPGKGLEWVSGISWNSGSIGYADSVKGRFTISRDNTKNSLYLQMNSLRAEDTGVYYCAREVTGDLDYWGQGTLVTVSS
VL: EIVMTQSPGTLSLSPGERATLSCRASQFLSSTYLAWYQQRPGQAPRLLIYSASNRATGVPDRFSGSGSGTDFTLKISRVEAEDVGVYYCMQATHWPYTFGQGTKLEIKR
notes: also called Clone GDF11 Inh-1
B3: GDF11 Inh-5 (antibody, V domains shown)
VH: EVQLVQSGAEVKKPGASVKVSCKASGYTFTGYYIYWVRQAPGQGLEWMGWIRPNSGDTNYAQKFQDRLTMTRDTSISTAYMELSRLRSDDTAVYYCAGNYDILTGYQAPLGYWGQGALVTVSS
VL: DIVLTQSPATLSVSPGERATLSCRASQRVISNYLAWYQQKPGQAPRLLIYGASSRATGIPDRFSGSGSGTDFTLSISRLEPEDFAVYYCQHYGPFGGGTKVEIKR
notes: also called Clone GDF11 Inh-5
B4: GDF11 Inh-3 (antibody, V domains shown)
VH: QVQLVQSGGGVVQPGRSLRLSCAASGFTFSSYAMHWVRQAPGKGLEWVAVISYDGSNEYYADSVKGRFTISRDNSKNTLYLQMNSLRAEDTAVYYCAKDFWSGYPQYNWFDPWGQGTLVTVSS
VL: EIVMTQSPATLSLSAGERATLSCRASQSVSNYLAWYQQKPGQAPRLLIYDASNRATGIPARFSGSGSGTDFTLTISSLEPEDFAVYYCQQYGSAPLTFGGGTNVEIKR
notes: also called Clone GDF11 Inh-3
B5: GDF11 Inh-7 (antibody, V domains shown)
VH: EVQLVQSGGGLVQPGGSLRLSCAASGFTFSSYSMNWVRQAPGKGLEWVSYISSSSSTIYYADSVKGRFTISRDNAKNSLYLQMNSLRAEDTAVYYCARDGIYYDSSGYYDLFDYWGQGTLVTVSS
VL: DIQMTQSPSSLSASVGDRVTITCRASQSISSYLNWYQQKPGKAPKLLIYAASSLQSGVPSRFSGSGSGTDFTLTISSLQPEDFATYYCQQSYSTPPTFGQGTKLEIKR
notes: also called Clone GDF11 Inh-7

Columns and labels:
human proGDF11 [1] = target: T1, human proGDF11; test: BLI (ForteBio Octet)
human proGDF11 [2] = target: T1, human proGDF11; test: cell-based or functional assay
murine proGDF11 [3] = target: T2, murine proGDF11; test: cell-based or functional assay
human proGDF8 = target: T3, human proGDF8; test: ELISA, biotinylated antigen on neutravidin plate
Source text: (§1) Candidate clones were converted to human IgG1 format. Full-length IgG antibodies were further characterized by ELISA for binding to the human and murine pro- and latent-forms of myostatin and GDF11. Antibodies were also screened for binding to the Myostatin prodomain (SEQ ID NO: 85), proTGFDβ1 (human and murine), the mature growth factor of Myostatin (SEQ ID NO: 89), the GDF11 mature growth factor (SEQ ID NO: 90), and proActivin A (SEQ ID NO: 84). Chimeric constructs which swapped portions of the prodomains of Myostatin and GDF11 were designed and produced. For example proGDF11 arm8 (SEQ ID NO: 112) refers to GDF11 having the GDF8 arm domain, and prodomain GDF11 arm8 (SEQ ID NO: 114) refers to the GDF11 prodomain having the GDF8 arm domain. These chimeric proteins were assayed for interaction with screening antibodies by ELISA and allowed for the assessment of binding of antibodies to the ARM or straight jacket portions of the GDF11 prodomain complex. Antibodies were selected based on their cross-reactivity with pro- and latent human and murine GDF11, with no interactions with GDF8, Activin, or TGFβ proteins. Activin A is a homodimer of inhibin-beta A subunits. For example, Inhibin-beta A can heterodimerize with other proteins to produce different Activin proteins.
(§2) Enzyme-linked immunosorbent assay (ELISA) analysis is carried out to assess antibody binding. 96-well ELISA assay plates are coated with neutravidin, a deglycosylated version of streptavidin with a more neutral pH. Target proteins are expressed with or without histidine (His) tags and subjected to biotinylation. Biotinylated target proteins are incubated with neutravidin-coated ELISA assay plates for two hours at room temperature and unbound proteins are removed by washing three times with wash buffer (either 25 mM Tris, 150 mM NaCl, 0.05% TWEEN®-20, or 20 mM Hepes pH 7.5, 500 mM NaCl, 0.05% TWEEN®-20). Primary antibodies being tested are added to each well and allowed to incubate at room temperature for 1 hour or more. Unbound antibody is then removed by washing three times with wash buffer. Secondary antibodies capable of binding to primary antibodies being tested and conjugated with detectable labels are then incubated in each well for 30 minutes at room temperature. Unbound secondary antibodies are removed by washing three times with wash buffer.

[4] = target: T4, human prodomain GDF11 ARM8; test: ELISA, biotinylated antigen on neutravidin plate
Source text: as §1, §2

human proGDF11 [5] = target: T1, human proGDF11; test: cell-based or functional assay; remark: listed apart in the source
murine proGDF11 [6] = target: T2, murine proGDF11; test: BLI (ForteBio Octet)
human mature GDF11 = target: T5, human mature GDF11; test: ELISA, biotinylated antigen on neutravidin plate
Source text: as §1, §2

human latent GDF11 = target: T6, human latent GDF11; test: BLI (ForteBio Octet)
human proGDF11 [7] = target: T1, human proGDF11; test: cell-based or functional assay; remark: listed apart in the source
human proActivin A = target: T7, human proActivin A; test: BLI (ForteBio Octet QKe), antigen on streptavidin biosensor, antibody in solution
human proGDF11 ARM8 = target: T8, human proGDF11 ARM8; test: ELISA, biotinylated antigen on neutravidin plate
Source text: as §1, §2

Binder	Kd (human proGDF11 [1]) [nM]	Human proGDF11 % Inhibition (proGDF11 activation assay, CAGA luciferase reporter in 293T cells) (human proGDF11 [2]) [%]	Murine proGDF11 % inhibition (proGDF11 activation assay, CAGA luciferase reporter in 293T cells) (murine proGDF11 [3]) [%]	binding result (human proGDF8)	binding result [4]	EC50, proGDF11 activation assay at 50 nM proGDF11 (human proGDF11 [5]) [nM]	Kd (murine proGDF11 [6]) [nM]	binding result (human mature GDF11)	Kd (human latent GDF11) [nM]	EC50 (inhibition of proGDF11 activation; CAGA luciferase reporter in 293T cells after overnight proteolysis) (human proGDF11 [7]) [nM]	binding result (human proActivin A)	binding result (human proGDF11 ARM8)
B1	0.75	77	63	no binding	no binding							
B2	0.49	91	80			87.1	0.848	no binding				
B3	< 0.001	96	90			30.1			< 0.001	~30.3	no binding (tested: 50 µg/mL)	
B4	0.71	87	88	no binding	no binding		0.937	no binding				no binding
B5	2.12	74	53					no binding				
